The results in this text go back to the nanobody polyreactivity screen of Harvey et al. (2022).

The series can be described thus: yeast display, Sf9 membrane polyspecificity reagent, FACS + sequencing; frameworks hold sequencing errors. The method in brief:
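Using colony PCR, genes from sorted yeast display clones were amplified, then sequenced on MiSeq at 2 × 250 and filtered by CDR length. The clones had been stained with 10% biotinylated, detergent-solubilized Sf9 membrane reagent for 1 hour at 4 °C and sorted by FACS into low and high (top ~1%) gates on anti-HA and streptavidin fluorescence. Polyreactivity labels come from the gate of origin.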
On to “QVQLVESGGGLVQAGGSLRLSCAASGSIFGEYTMGWYRPAPGKERELVAAIRSGGDTYYADSVKGRFTISRDNAKNTVYLQMNSLKPEDTAVYYCNAYWVRHYIMDYWGQGTQVTVSS”, for which the “polyreactivity (PSR sort gate)” value was “low polyreactivity”.
For “QVQLVESGGGLVQAGGSLRLSCAASGSIFGFYAMGWYIQAPGKERELVAAISDSGDSTYYADSVKGRFTISRDNAKNTVYLQMNSLKPEDTAVYYCATDGRSNYYWGDYWGQGTHVTVSS”, the “polyreactivity (PSR sort gate)” value is given as “low polyreactivity”.
Take “QVQLVESGGGLVQAGGSLRLSCAASGSIFGFYAMGWYRQAPGKERELVAAITSGDSTHYADSVKGRFTISRDNAKNTVYLQMNSLKPEDTAVYYCAASAPYRYYRSAYYYWGQGTQVTVSS”: the “polyreactivity (PSR sort gate)” value is reported as “low polyreactivity”.
Turning to “QVQLVESGGGLVQAGGSLRLSCAASGSIFGFYGMGWYRQAPGKERELVAAISSRGGSTYYADSVKGRFTISRDNAKNTVYLQMNSLKPEDTAVYYCATERERTMGYWGQGTQVTVSW”, the “polyreactivity (PSR sort gate)” value is given as “high polyreactivity”.
In the case of “QVQLVESGGGLVQAGGSLRLSCAASGSIFGGNAMGWSRQAPGKERELVAVITSGGSTYYADSVKGRFTISRDNAKNTVYLQMNSLKPEDTAVYYCNVDRLARKAHYDYWGQGTQVTVSS” it was “high polyreactivity”; in that of “QVQLVESGGGLVQAGGSLRLSCAASGSIFGGNAMGWYRPAPGTVRELVAAITSSGGSTYYADSVKGRFTMSRDNAKNTVYLQMNSLNPEDTAVYYSNKAYPGRTYDYWGQGTQVTVSS”, “high polyreactivity”; in that of “QVQLVESGGGLVQAGGSLRLSCAASGSIFGGNAMGWYRQAPGKERELVATIDFSGTSTYYADSVKGRFTISRDHAKKTVYLQMHSLKPEDTSVSSCNARSYPDYIYWSQRYDYDFWGQGTQVTVSS”, “low polyreactivity”.
Turning to “QVQLVESGGGLVQAGGSLRLSCAASGSIFGGNAMGWYRQAPGKETELVATITVRGGSTYYADSVKGRFRISRDNAKNSVYLQMNSLKPEDTAVYYCATEEVSRYRYGYWGQGTQVTVSS”, the “polyreactivity (PSR sort gate)” value is reported as “low polyreactivity”.
In the case of “QVQLVESGGGLVQAGGSLRLSCAASGSIFGGNDMGWSRQAPGKERAWVAAITATSGSTYYADSVKGRFTISRDNAKNTVYLQMNSLKPEDTAVYYCAAKPVGTYSRPHDYWGQGTQVTVSS” it was “low polyreactivity”; in that of “QVQLVESGGGLVQAGGSLRLSCAASGSIFGGNTMGWYRKAPGKERELVAAITNGGRTNYADSVKGRFTISRDNAKNTVYLQMNSLKPEDTAVYYCNAVTYSRRYAYYYWGQGTQVTVSS”, “high polyreactivity”.
Next, “QVQLVESGGGLVQAGGSLRLSCAASGSIFGGNTMGWYRQAPGKERELVAAISRSGGSTYYADSVKGRFTISRDNAKNTVYLQMNSLKPEDTAVYYCNRKQAGHAQGYDYWGQGTQVTVSS”: “high polyreactivity”.
In the case of “QVQLVESGGGLVQAGGSLRLSCAASGSIFGGSGMGWYRQAPGKERELVAAITSGSSTYYADSVKGRFTISRDNAKNTVYLQMNSLKPEDTAVYYCAARPYPHSAYEGDYWGRGTQVTVSS” it was “low polyreactivity”; in that of “QVQLVESGGGLVQAGGSLRLSCAASGSIFGGYALGWYRQAPGKERELVAAISKTGGTTYYADSVKGRFTISRDNALNTVYLQMNSLKPEDTAVYYWNAPKRYYGSAYGYGYWGQGTQVTVSS”, “high polyreactivity”; in that of “QVQLVESGGGLVQAGGSLRLSCAASGSIFGGYALGWYRQAPGNERELVAAITSSGGRTYYADSVKGRFTISRDNAKNTVYLQMNSLKPEDTAVYYCAARYTRWRYIYKDYDYWGQGTQVTVSS”, “high polyreactivity”.
On to “QVQLVESGGGLVQAGGSLRLSCAASGSIFGGYAMGWYRQAPGKERELVAAISSSGGSTYYADSVKGRFTISRDNAKNTVYLQMHSLKPEDTAVYYCASSYHGRSYHLNYWGQGTQVTVSS”, for which the “polyreactivity (PSR sort gate)” value is “high polyreactivity”.
Next, “QVQLVESGGGLVQAGGSLRLSCAASGSIFGGYAMGWYRQAPGKERELVAAISYRGASTYYADSVKGRFTISRDNAKNTVYLQMNSLKPEDTAVYYCAARHDKRRQYYVGQSAFDYWGQGTQVTVSS”: “low polyreactivity”.
In the case of “QVQLVESGGGLVQAGGSLRLSCAASGSIFGGYAMGWYRQAPGKERELVAAITSSGGRTYYADSVKGRFTISRDNAKNTVDLQMNSLKPEDTAVYYCAASPNYYYYYPMYYWGQGTQVTVSS”, the “polyreactivity (PSR sort gate)” value is “high polyreactivity”.
Next, “QVQLVESGGGLVQAGGSLRLSCAASGSIFGGYPMGWYRQAPGKERELVAAITYSAGNTYYADSVKGRFTISRDNAKNTFYVQMNSLKPEDTAVYYCNAVTKHRAITNMDYWGQGTQVTVSS”: “high polyreactivity”.
Next, “QVQLVESGGGLVQAGGSLRLSCAASGSIFGGYSMGWYRQAPGKEMELVARISSGGSTYYADSVKGRFTISRDNAKNTVYLQMNSLKQEDTAVYYCNAKTYTWWGLYEYWGQGTQVTVSS”: “high polyreactivity”; “QVQLVESGGGLVQAGGSLRLSCAASGSIFGGYTMGWYRQAPGKERELVAAISRRGGNTYYADSVKGRFTISRDNAKNTVYLQMNSMKPEDSAVYYCAVRWPSARIPVKLDYWGQGTQVNVSS”: “high polyreactivity”.
In the case of “QVQLVESGGGLVQAGGSLRLSCAASGSIFGGYVMGWFRQAPGKERELVAAITSNGGITYADSVKGRFTISRDNAKNTVYLQMHSLKPEDTAVYYCAADSWFYGGEYKFGYYWGQGTQVTVSS” it was “low polyreactivity”; in that of “QVQLVESGGGLVQAGGSLRLSCAASGSIFGHYAMGWYRPAPGKERELVAGISSSSGGRTYYADSVKGRFTISRDNAKNTVYLQMNSLKPEDTAVDYCAAVYSVQVSRRAKYYYWGQGTQVTVSS”, “high polyreactivity”; in that of “QVQLVESGGGLVQAGGSLRLSCAASGSIFGINAMGWYRQAPGKERELVAAISWRGDSTSYADSVKGRFTISRDNAKNTVYLQMNSLKPEDTAVYYCAKGGTRFYVVGETYYYWGQGTQVTVSS”, “low polyreactivity”.
For “QVQLVESGGGLVQAGGSLRLSCAASGSIFGINVMGWYRQAPGKERELVAAISRSGSSTYYADSVKGRFTISRDNAKNTVYLQMNSLKPEDTAVYYCNADRSTWTVLVWEYDYWGQGTQVTVSS”, the “polyreactivity (PSR sort gate)” value is “low polyreactivity”.
In the case of “QVQLVESGGGLVQAGGSLRLSCAASGSIFGIYAMGWYRQAPGKERELVAAIRRGGSTYYADSVKGRFTISRDNAKNTVYLQMNSLKPEDTAVYYCAARKYRLWGKGVDYDYWGQGTQVTVSS” it was “high polyreactivity”; in that of “QVQLVESGGGLVQAGGSLRLSCAASGSIFGIYAMGWYRQAPGKERELVAAIRRGGSTYYADSVKGRFTISRDNAKNTVYLQMNSLKPEDTAVYYCNTDYHRLLRSRPKYYYWGQGTQVTVSS”, “high polyreactivity”.
As to “QVQLVESGGGLVQAGGSLRLSCAASGSIFGIYAMGWYRQAPGKERELVADITYSGGSTYYADSVKGRFTISRDNAKNTVYLQMNSLKPEDTAVYYCAADWVYVNAWTGGWTYEYWGQGTQVTVSS”, the “polyreactivity (PSR sort gate)” value is reported as “high polyreactivity”.
Next, “QVQLVESGGGLVQAGGSLRLSCAASGSIFGKNAMGWYRQAPGKERELVAAISATGSRTYYADSVKGRFTISRDNAKNTVYLQMISLKPEETAVYSCTKLVRGVRPEEYDYGGQGTQVTVSS”: “high polyreactivity”; “QVQLVESGGGLVQAGGSLRLSCAASGSIFGKYAMGWYRQAPGKERELVAAISERTGRTYYADSVKGRFTISRDNAKNTVYLQMNSLKPEDTAVYYCNVVPLDSGWSTYGYDYWGQGTQVTVSS”: “high polyreactivity”.
Consider “QVQLVESGGGLVQAGGSLRLSCAASGSIFGKYTMGWYRQAPGKEREFVAAITSVGSTNYADSVKVRFTISRDNAKNTVYLQMNSLKPVDTAVYYCAADTIGYHYWYDYWGQGTQVTVSS”, for which the “polyreactivity (PSR sort gate)” value is “low polyreactivity”.
